Median IC50 of inhibition of the IFN-induced ISRE-luciferase reporter response in transfected HEK293 cells data for one molecule are collected here from article PMC4967814.

In the test the target is each of 12 IFNα subtypes and IFNω (ISRE-luciferase reporter assay, median IC50).

B1: rontalizumab, in-house-generated recombinant (antibody, INN chains, looked up, V domains shown)
VH: EVQLVESGGGLVQPGGSLRLSCATSGYTFTEYIIHWVRQAPGKGLEWVASINPDYDITNYNQRFKGRFTISLDKSKRTAYLQMNSLRAEDTAVYYCASWISDFFDYWGQGTLVTVSS
VL: DIQMTQSPSSLSASVGDRVTITCRASQSVSTSSYSYMHWYQQKPGKAPKVLISYASNLESGVPSRFSGSGSGTDFTLTISSLQPEDFATYYCQHSWGIPRTFGQGTKVEIKR
On to B1, for which the median IC50 of inhibition of the IFN-induced ISRE-luciferase reporter response in transfected HEK293 cells was 0.0109 µg/mL.
